Assay results from publication PMC11303751, “Novel enzymatic route to the synthesis of C-8 hydroxyflavonoids including flavonols and isoflavones” (Scientific Reports, 2024).

What was measured:
[1] = target: T1, fdeE (Herbaspirillum seropedicae, UniProt D8J0W9); assay: UV-Vis spectrum of purified enzyme; type: binding; settings: FAD co-purified with the enzyme; none added
T1 construct: gene Hsero_1007; codon-optimised ORF in pRhaBAD_12, expressed in E. coli BL21(DE3), purified by Ni IMAC (HisTrap), desalted
T1 sequence (D8J0W9 1-376): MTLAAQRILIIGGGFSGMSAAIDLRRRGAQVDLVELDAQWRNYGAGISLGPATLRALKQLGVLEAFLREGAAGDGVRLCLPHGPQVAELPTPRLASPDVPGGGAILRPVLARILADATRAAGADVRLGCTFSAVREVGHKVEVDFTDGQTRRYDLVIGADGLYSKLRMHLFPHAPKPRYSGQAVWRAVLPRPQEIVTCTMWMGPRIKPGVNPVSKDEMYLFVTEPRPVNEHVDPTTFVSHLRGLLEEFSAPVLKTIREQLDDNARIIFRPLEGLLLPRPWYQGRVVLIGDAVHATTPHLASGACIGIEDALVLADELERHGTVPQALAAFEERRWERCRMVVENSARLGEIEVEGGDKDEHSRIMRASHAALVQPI

[2] = substrate: O=c1cc(-c2ccc(O)cc2)oc2cc(O)cc(O)c12; assay: purified protein; settings: 1 mM NADPH, GDH/glucose regeneration, 25 mM DTT, 25 mM sodium phosphate pH 7.5, initial substrate 0.05 mM, from a single progress curve
[3] = substrate: O=c1cc(-c2ccccc2)oc2cc(O)cc(O)c12; assay: UPLC-DAD product-formation progress curve; type: biochemical, Herbaspirillum seropedicae; settings: 1 mM NADPH, GDH/glucose regeneration, 25 mM DTT, 25 mM sodium phosphate pH 7.5, initial substrate 0.05 mM, from a single progress curve
From the text: (§1) UPLC-DAD product-formation progress curve on fdeE

[4] = substrate: O=c1cc(-c2ccc(O)c(O)c2)oc2cc(O)cc(O)c12; assay: UPLC-DAD product-formation progress curve; type: biochemical, Herbaspirillum seropedicae; settings: 1 mM NADPH, GDH/glucose regeneration, 25 mM DTT, 25 mM sodium phosphate pH 7.5, initial substrate 0.05 mM, from a single progress curve
From the text: as §1

[5] = substrate: O=c1c(O)c(-c2ccc(O)c(O)c2)oc2cc(O)cc(O)c12; assay: UPLC-DAD product-formation progress curve; type: biochemical, Herbaspirillum seropedicae; settings: 1 mM NADPH, GDH/glucose regeneration, 25 mM DTT, 25 mM sodium phosphate pH 7.5, initial substrate 0.05 mM, from a single progress curve
From the text: as §1

[6] = substrate: O=C1C[C@@H](c2ccc(O)cc2)Oc2cc(O)cc(O)c21; assay: UPLC-DAD product-formation progress curve; type: biochemical, Herbaspirillum seropedicae; settings: 1 mM NADPH, GDH/glucose regeneration, 25 mM DTT, 25 mM sodium phosphate pH 7.5, initial substrate 0.05 mM, from a single progress curve
From the text: as §1

**Q.** Which “UV-Vis spectrum of purified enzyme” value [1] does the source give for `Cc1cc2nc3c(=O)[nH]c(=O)nc-3n(C[C@H](O)[C@H](O)[C@H](O)COP(=O)(O)OP(=O)(O)OC[C@H]3O[C@@H](n4cnc5c(N)ncnc54)[C@H](O)[C@@H]3O)c2cc1C` [FAD] here?
**A.** The value was “UV–Vis spectrium of purified fdeE with absorption spectra characteristic for FAD absorbance”.

B1: fdeE (Herbaspirillum seropedicae SmR1) (protein)
chain: MTLAAQRILIIGGGFSGMSAAIDLRRRGAQVDLVELDAQWRNYGAGISLGPATLRALKQLGVLEAFLREGAAGDGVRLCLPHGPQVAELPTPRLASPDVPGGGAILRPVLARILADATRAAGADVRLGCTFSAVREVGHKVEVDFTDGQTRRYDLVIGADGLYSKLRMHLFPHAPKPRYSGQAVWRAVLPRPQEIVTCTMWMGPRIKPGVNPVSKDEMYLFVTEPRPVNEHVDPTTFVSHLRGLLEEFSAPVLKTIREQLDDNARIIFRPLEGLLLPRPWYQGRVVLIGDAVHATTPHLASGACIGIEDALVLADELERHGTVPQALAAFEERRWERCRMVVENSARLGEIEVEGGDKDEHSRIMRASHAALVQPI
notes: codon-optimised ORF in pRhaBAD_12, expressed in E. coli BL21(DE3), purified by Ni IMAC (HisTrap), desalted
**Q.** With B1 as the molecule, how does the Km [2] read?
**A.** The Km was 20.2 µM.

**Q.** And the Vmax [2]?
**A.** Its Vmax is 4.02 µM/min.

**Q.** What about the kcat [2] of the same molecule?
**A.** The kcat was 0.0532 s⁻¹.

**Q.** And the kcat/Km [2]?
**A.** The kcat/Km was 2630 M⁻¹ s⁻¹.

**Q.** And the Km [3]?
**A.** The Km was 431 µM.

**Q.** What about the Vmax [3] of the same molecule?
**A.** Its Vmax is 88.2 µM/min.

**Q.** And the kcat [3]?
**A.** The kcat was 1.17 s⁻¹.

**Q.** And the kcat/Km [3]?
**A.** The kcat/Km was 2720 M⁻¹ s⁻¹.

**Q.** And the Km [4]?
**A.** Its Km is 51.8 µM.

**Q.** And the Vmax [4]?
**A.** The Vmax was 6.12 µM/min.

**Q.** What about the kcat [4] of the same molecule?
**A.** The kcat was 0.0811 s⁻¹.

**Q.** What about the kcat/Km [4] of the same molecule?
**A.** Its kcat/Km is 1570 M⁻¹ s⁻¹.

**Q.** And the Km [5]?
**A.** The Km was 14.9 µM.

**Q.** And the Vmax [5]?
**A.** Its Vmax is 0.512 µM/min.

**Q.** And the kcat [5]?
**A.** The kcat was 0.00678 s⁻¹.

**Q.** What about the kcat/Km [5] of the same molecule?
**A.** The kcat/Km was 450 M⁻¹ s⁻¹.

**Q.** And the Km [6]?
**A.** Its Km is 0.422 µM.

**Q.** What about the Vmax [6] of the same molecule?
**A.** Its Vmax is 2.09 µM/min.

**Q.** What about the kcat [6] of the same molecule?
**A.** Its kcat is 0.0277 s⁻¹.

**Q.** And the kcat/Km [6]?
**A.** The kcat/Km was 65500 M⁻¹ s⁻¹.
